Results taken from US20230235304.
Residue numbers refer to the chain shown, from its start.

Assays:
Experiment in all cases: cell_activity
Details in all cases: PAM 5'-GCTG-3'; HEK293T; averaged over AAVS1, VEGFA, EMX1 targets
[1] = tested on: T1, CRISPR nuclease variant S511R S511R (synthetic construct)
T1 sequence: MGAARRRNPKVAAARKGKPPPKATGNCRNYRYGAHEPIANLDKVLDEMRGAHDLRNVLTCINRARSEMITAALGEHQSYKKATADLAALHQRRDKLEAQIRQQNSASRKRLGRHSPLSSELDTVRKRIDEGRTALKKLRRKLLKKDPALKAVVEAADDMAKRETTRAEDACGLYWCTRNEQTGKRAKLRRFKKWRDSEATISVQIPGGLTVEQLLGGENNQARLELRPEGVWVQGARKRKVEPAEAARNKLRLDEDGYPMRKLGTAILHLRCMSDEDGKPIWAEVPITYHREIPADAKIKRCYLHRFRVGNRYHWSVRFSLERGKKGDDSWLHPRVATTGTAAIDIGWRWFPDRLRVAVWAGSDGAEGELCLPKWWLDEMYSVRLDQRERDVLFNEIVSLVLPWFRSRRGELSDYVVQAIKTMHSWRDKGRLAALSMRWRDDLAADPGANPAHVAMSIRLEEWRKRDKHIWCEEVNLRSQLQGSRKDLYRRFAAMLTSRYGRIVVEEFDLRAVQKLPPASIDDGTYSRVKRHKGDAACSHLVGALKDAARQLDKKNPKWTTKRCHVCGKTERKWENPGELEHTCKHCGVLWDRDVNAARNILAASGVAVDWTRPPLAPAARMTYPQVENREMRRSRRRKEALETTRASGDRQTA

[2] = tested on: T2, CRISPR nuclease variant D535G D535G (synthetic construct)
T2 sequence: T1 sequence with R511S, D535G

[3] = tested on: T3, CRISPR nuclease variant D509R D509R (synthetic construct)
T3 sequence: T1 sequence with D509R, R511S

[4] = tested on: T4, CRISPR nuclease variant Q514G Q514G (synthetic construct)
T4 sequence: T1 sequence with R511S, Q514G

**Q.** What does the source list for “GGUCCCAUCGGAACGGGUUGUGGUUCCGACGGAGGGAUACAUUGGUGGGG / GGAGGGATACATTGGTGGGG / CCCCACCAATGTATCCCTCC [AAVS1 crRNA (Table 5) ; AAVS1 target (Table 5)]”?
**A.** binding signal (fold indels vs WT) [1]: 3.71; binding signal (fold indels vs WT) [2]: 3.57; binding signal (fold indels vs WT) [3]: 3.91; binding signal (fold indels vs WT) [4]: 3.53
